The results in this text go back to PMC6850273, “Cyanophage MazG is a pyrophosphohydrolase but unable to hydrolyse magic spot nucleotides” (Environmental Microbiology Reports, 2019).

Holding throughout (assay): PiPER pyrophosphate assay kit, released phosphate
Holding throughout (conditions): 1 μg purified protein; SE of three replicates

Substrate in data set [1]: Cc1cn([C@H]2C[C@H](O)[C@@H](COP(=O)(O)OP(=O)(O)OP(=O)(O)O)O2)c(=O)[nH]c1=O
In kind it is biochemical, Synechococcus phage S-PM2. From the text: (§1) PiPER pyrophosphate assay kit, released phosphate on cyanophage S-PM2 MazG (viral MazG)

Substrate in data set [2]: Nc1nc2c(ncn2[C@H]2C[C@H](O)[C@@H](COP(=O)(O)OP(=O)(O)OP(=O)(O)O)O2)c(=O)[nH]1
The class given is biochemical, Synechococcus phage S-PM2.
Excerpt: as §1

Substrate in data set [3]: O=c1ccn([C@@H]2O[C@H](COP(=O)(O)OP(=O)(O)OP(=O)(O)O)[C@@H](O)[C@H]2O)c(=O)[nH]1
The class given is biochemical, Synechococcus phage S-PM2.
Excerpt: as §1

Substrate in data set [4]: O=c1ccn([C@H]2C[C@H](O)[C@@H](COP(=O)(O)OP(=O)(O)OP(=O)(O)O)O2)c(=O)[nH]1
The class given is biochemical, Synechococcus phage S-PM2.
Excerpt: as §1

Substrate in data set [5]: Nc1ncnc2c1ncn2[C@@H]1O[C@H](COP(=O)(O)OP(=O)(O)OP(=O)(O)O)[C@@H](O)[C@H]1O
The class given is biochemical, Synechococcus phage S-PM2.
Excerpt: as §1

Substrate in data set [6]: Nc1ccn([C@@H]2O[C@H](COP(=O)(O)OP(=O)(O)OP(=O)(O)O)[C@@H](O)[C@H]2O)c(=O)n1
In kind it is biochemical, Synechococcus phage S-PM2.
Excerpt: as §1

Substrate in data set [7]: Nc1ccn([C@H]2C[C@H](O)[C@@H](COP(=O)(O)OP(=O)(O)OP(=O)(O)O)O2)c(=O)n1
In kind it is biochemical, Synechococcus phage S-PM2.
Excerpt: as §1

Substrate in data set [8]: Nc1nc(O)nc2c1ncn2[C@H]1C[C@H](O)[C@@H](COP(=O)(O)OP(=O)(O)OP(=O)(O)O)O1
In kind it is biochemical, Synechococcus phage S-PM2.
Excerpt: as §1

Substrate in data set [9]: Nc1ncnc2c1ncn2[C@H]1C[C@H](O)[C@@H](COP(=O)(O)OP(=O)(O)OP(=O)(O)O)O1
The class given is biochemical, Synechococcus phage S-PM2.
Excerpt: as §1

Substrate in data set [10]: Nc1nc2c(ncn2[C@H]2C[C@H](O)[C@@H](COP(=O)(O)OP(=O)(O)OP(=O)(O)O)O2)c(=O)[nH]1
The class given is biochemical, Synechococcus sp. WH 7803. From the text: (§2) PiPER pyrophosphate assay kit, released phosphate on Synechococcus sp. WH7803 'large' MazG (Syn MazG)

Substrate in data set [11]: O=c1ccn([C@@H]2O[C@H](COP(=O)(O)OP(=O)(O)OP(=O)(O)O)[C@@H](O)[C@H]2O)c(=O)[nH]1
The class given is biochemical, Synechococcus sp. WH 7803.
Excerpt: as §2

Substrate in data set [12]: Nc1ncnc2c1ncn2[C@@H]1O[C@H](COP(=O)(O)OP(=O)(O)OP(=O)(O)O)[C@@H](O)[C@H]1O
The class given is biochemical, Synechococcus sp. WH 7803.
Excerpt: as §2

Substrate in data set [13]: Nc1ccn([C@@H]2O[C@H](COP(=O)(O)OP(=O)(O)OP(=O)(O)O)[C@@H](O)[C@H]2O)c(=O)n1
The class given is biochemical, Synechococcus sp. WH 7803.
Excerpt: as §2

Substrate in data set [14]: Nc1ccn([C@H]2C[C@H](O)[C@@H](COP(=O)(O)OP(=O)(O)OP(=O)(O)O)O2)c(=O)n1
In kind it is biochemical, Synechococcus sp. WH 7803.
Excerpt: as §2

Substrate in data set [15]: Nc1nc2c(ncn2[C@@H]2O[C@H](COP(=O)(O)OP(=O)(O)OP(=O)(O)O)[C@@H](O)[C@H]2O)c(=O)[nH]1
The class given is biochemical, Synechococcus sp. WH 7803.
Excerpt: as §2

Substrate in data set [16]: Nc1ncnc2c1ncn2[C@H]1C[C@H](O)[C@@H](COP(=O)(O)OP(=O)(O)OP(=O)(O)O)O1
The class given is biochemical, Synechococcus sp. WH 7803.
Excerpt: as §2

B1: cyanophage S-PM2 MazG (viral MazG) (Synechococcus phage S-PM2) (protein)
chain: MSKVNFERYQEFVSEVTSDASTNFVDFADRIGELDREGANIERLLTAGVGINAEGGEFLEIIKKMVFQGKPWNRDNREHLIIELGDIMWYVAQACIALGVSFDDVISGNVKKLEKRYPGGEFDVFYSENRSADDR
notes: recombinant, over-expressed in E. coli, purified by imidazole elution (tag details only in supplement); single MazG domain
What is called Vmax is the rate approached at saturating substrate. As a reminder, the kcat is the maximal rate divided by the concentration of active sites. With B1, the Km is on record as 1.23 (±0.06) mM in [1]; 0.14 (±0.01) mM in data set [2]; 0.6 (±0.37) mM in data set [3]; 3.24 (±1.55) mM in data set [4]; 1.43 (±0.36) mM in [5]; 0.85 (±0.11) mM in data set [6]. For the same protein, the results for the Km in data set [7], in data set [8] and in data set [9] were 1.16 (±0.04) mM, 4.86 (±1.13) mM and 1.2 (±0.21) mM, respectively. The Vmax was 5.68 µmol/min/mg in [1]; 10.3 µmol/min/mg in [2]; 3.31 µmol/min/mg in data set [3]; 4.22 µmol/min/mg in data set [4]; 2.28 µmol/min/mg in data set [5]; 2.51 µmol/min/mg in [6]. Also, the figures for the Vmax in [7], in data set [8] and in data set [9] were 8.86 µmol/min/mg, 1.65 µmol/min/mg and 1.62 µmol/min/mg, respectively. Moreover, the kcat in [1] worked out at 3.68 ± 0.13 s⁻¹; in data set [2] it was 6.67 ± 0.165 s⁻¹; in [3], 2.15 ± 0.119 s⁻¹; in [4] it was 4.94 ± 0.395 s⁻¹; in data set [5], 1.48 ± 0.157 s⁻¹; in data set [6], 1.62 ± 0.111 s⁻¹. Also, the kcat is 5.74 ± 0.129 s⁻¹ in [7], 1.93 ± 0.0658 s⁻¹ in data set [8] and 1.05 ± 0.124 s⁻¹ in data set [9].

B2: Synechococcus sp. WH7803 'large' MazG (Syn MazG) (Synechococcus sp. WH 7803) (protein)
chain: MAQHATVPGDQDPLRYLESVVARLRDPVNGCPWDLEQTHASLVPYVLEEAHEVADAIRHGDDRHLKEELGDLLLQVVLHARIGAENNRFDLDAIATTISDKLIRRHPHVFGEARAENTEAVRLSWEAIKAAERAEQSGGEQSSSPLSDQLAGKVRGQPALAAAMTISRKAAKAGFEWDAIDGVWGKVQEELDELKEAIASGDRRHAQDELGDVLFTLVNVARWCGLDPEEGLAATNQRFLDRFSRVESALNGDLQGRSIQELEALWQQAKAAIRAENTQSS
notes: recombinant, over-expressed in E. coli and purified (tag details only in supplement); two MazG domains
B2: the Km was 0.85 (±0.07) mM in data set [10]; 1.33 (±0.3) mM in data set [11]; 0.63 (±0.23) mM in data set [12]; 1.2 (±0.21) mM in [13]; 0.14 (±0.03) mM in [14]; 0.26 (±0.02) mM in [15]. The Km in data set [16] was 0.3 (±0.09) mM. For the same protein, the Vmax in [10] amounted to 0.64 µmol/min/mg; in data set [11], 3.02 µmol/min/mg; in [12], 2.55 µmol/min/mg; in data set [13], 1.96 µmol/min/mg; in data set [14], 3.81 µmol/min/mg; in data set [15] it was 0.7 µmol/min/mg. Further, the Vmax in data set [16] was determined as 1.8 µmol/min/mg. Further, the kcat in [10] turned out to be 0.753 ± 0.293 s⁻¹; in data set [11], 3.68 ± 0.1 s⁻¹; in [12], 2.99 ± 0.407 s⁻¹; in data set [13] it was 2.3 ± 0.164 s⁻¹; in data set [14], 4.46 ± 0.417 s⁻¹; in [15] it was 0.824 ± 0.153 s⁻¹. In addition, the kcat in data set [16] came to 2.1 ± 0.323 s⁻¹.
